Legend:
[1] = target: LF1p (aa 1-330), GAL4 two-hybrid fusion (C. reinhardtii) (UniProt Q7XJJ6); assay: two-hybrid
[2] = target: LF2p, full-length coding region, GAL4 two-hybrid fusion (C. reinhardtii) (UniProt A0MM70); assay: two-hybrid

“LF3p, full-length coding region, GAL4 two-hybrid fusion (natural protein)” gave a β-galactosidase (Miller units) [1] of 61.1 Miller units and a β-galactosidase (Miller units) [2] of 15.8 Miller units.
